From patent US20240368263A1 (PROMETHEUS BIOSCIENCES, published 2024)
Substitutions are numbered along the chain they refer to.

T1: Fas/TNFSF6 (R&D Systems, cat. no. 126-FL/CF) (UniProt P48023 134-281)
T1 sequence (looked up): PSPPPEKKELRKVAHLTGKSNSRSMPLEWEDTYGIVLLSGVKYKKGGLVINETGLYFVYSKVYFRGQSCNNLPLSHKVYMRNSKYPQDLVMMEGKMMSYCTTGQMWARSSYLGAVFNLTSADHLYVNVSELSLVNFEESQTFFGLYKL

T2: human TL1A (Fitzgerald, Prod. #30R-AT070) (human, UniProt O95150 72-251, limits assumed, biotinylated with EZ-Link Sulfo-NHS-LC-Biotin where used as soluble antigen)
T2 construct: also called TNFSF15; biotinylated human TL1A
T2 sequence (looked up): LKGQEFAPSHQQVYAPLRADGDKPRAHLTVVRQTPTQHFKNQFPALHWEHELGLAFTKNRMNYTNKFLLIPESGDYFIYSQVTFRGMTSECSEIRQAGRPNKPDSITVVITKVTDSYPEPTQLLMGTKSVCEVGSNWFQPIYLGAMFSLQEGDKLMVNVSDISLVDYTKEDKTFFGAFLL

B1: Clone 47 Fab (Fab, V domains shown)
VH: QVQLVQSGAEVKKPGASVKVSCKASGFDIQDTYMHWVRQAPGQGLEWMGRIEPASGHVKYDPKFQTRVTMTRDTSTSTVYMELSSLRSEDTAVYYCARSGGLPDWWGQGTTVTVSS
VL: EIVLTQSPGTLSLSPGERATLSCRASSSVSYMYWYQQKPGQAPRLLIYATSNLASGIPDRFSGSGSGTDFTLTISRLEPEDFAVYYCQQWEGNPRTFGGGTKLEIK
notes: Fab; also called variant 47
B2: Clone 2 Fab (Fab, V domains shown)
VH: B1 VH with V58I, D61S, T66G
VL: B1 VL
notes: Fab
B3: Clone 46 Fab (Fab, V domains shown)
VH: B1 VH with D61S, T66V
VL: B1 VL
notes: Fab
B4: Clone 34 Fab (Fab, V domains shown)
VH: B1 VH with V58I, T66G
VL: B1 VL
notes: Fab; also called variant 34
B5: Clone 52 Fab (Fab, V domains shown)
VH: B1 VH with V58I, D61S, T66G
VL: B1 VL with R24G
notes: Fab
B6: Clone 14 Fab (Fab, V domains shown)
VH: B1 VH with E52D, V58I, T66K, W105M
VL: B1 VL with E91Q
notes: Fab; also called variant 14
B7: Clone 23 Fab (Fab, V domains shown)
VH: B1 VH with E52D, V58L, T66N, W105K
VL: B1 VL
notes: Fab; also called variant 23
B8: Clone X Fab (Fab, V domains shown)
VH: QVQLVQSGAEVKKPGASVKVSCKASGFDIQDTYMHWVRQAPGQGLEWMGRIDPASGHTKYDPKFQGRATITTDTSASTAYLQLSSLRSEDTAVYYCARSGGLPDFWGQGTTVTVSS
VL: B1 VL with E91S
notes: Fab
B9: Clone 53 Fab (Fab, V domains shown)
VH: B1 VH with V58L, T66E, W105K
VL: B1 VL
notes: Fab; also called variant 53
B10: Clone 17L Fab (Fab, V domains shown)
VH: B1 VH with E52D, V58L, T66V, W105M
VL: B1 VL with E91Q
notes: Fab
B11: 18-7 (CDR-grafted LC) Fab (Fab, V domains shown)
VH: B1 VH with V20L, E52D, V58T, T66V, A97S, W105V
VL: B1 VL with E91S
notes: Fab; also called clone 18-7
B12: 12835 (humanized 5C3D11) Fab (Fab, V domains shown)
VH: B1 VH with V20L, E52D, V58T, T66V, R72T, A97S, W105V
VL: B1 VL with A19V, L21M, L45P, L46W, I57V, F70Y, E91S
notes: Fab
B13: clone 1-4 Fab (12835 framework variant) (Fab, V domains shown)
VH: B1 VH with V20L, E52D, V58T, T66V, R72T, A97S, W105V
VL: B1 VL with A19V, L21M, L46W, F70Y, E91S
notes: Fab
B14: clone 1-3 Fab (12835 framework variant) (Fab, V domains shown)
VH: B1 VH with V20L, E52D, V58T, T66V, R72T, A97S, W105V
VL: B1 VL with A19V, L21M, L45P, L46W, F70Y, E91S
notes: Fab
B15: clone 2-3 Fab (12835 framework variant) (Fab, V domains shown)
VH: B1 VH with V20L, E52D, V58T, T66V, R72T, A97S, W105V
VL: B1 VL with L45P, L46W, F70Y, E91S
notes: Fab
B16: clone 17-2 Fab (12835 framework variant) (Fab, V domains shown)
VH: B1 VH with V20L, E52D, V58T, T66V, A97S, W105V
VL: B1 VL with I57V, E91S
notes: Fab
B17: clone 26 Fab (12835 framework variant) (Fab, V domains shown)
VH: B1 VH with E52D, V58T, T66V, R72T, A97S, W105V
VL: B1 VL with L45P, L46W, I57V, F70Y, E91S
notes: Fab
B18: clone 5-1 Fab (12835 framework variant) (Fab, V domains shown)
VH: B1 VH with V20L, E52D, V58T, T66V, A97S, W105V
VL: B1 VL with L45P, L46W, I57V, F70Y, E91S
notes: Fab
B19: clone 16-2 Fab (12835 framework variant) (Fab, V domains shown)
VH: B1 VH with V20L, E52D, V58T, T66V, A97S, W105V
VL: B1 VL with F70Y, E91S
notes: Fab
B20: clone 5-4 Fab (12835 framework variant) (Fab, V domains shown)
VH: B1 VH with V20L, E52D, V58T, T66V, R72T, A97S, W105V
VL: B1 VL with L45P, L46W, I57V, F70Y, E91S
notes: Fab
B21: clone 19 Fab (12835 framework variant) (Fab, V domains shown)
VH: B1 VH with V20L, E52D, V58T, T66V, R72T, A97S, W105V
VL: B1 VL with F70Y, E91S
notes: Fab
B22: clone 3-4 Fab (12835 framework variant) (Fab, V domains shown)
VH: B1 VH with V20L, E52D, V58T, T66V, R72T, A97S, W105V
VL: B1 VL with L45P, L46W, I57V, E91S
notes: Fab
B23: clone 7-4 Fab (12835 framework variant) (Fab, V domains shown)
VH: B1 VH with V20L, E52D, V58T, T66V, R72T, A97S, W105V
VL: B1 VL with L46W, I57V, F70Y, E91S
notes: Fab
B24: clone 13-2 Fab (12835 framework variant) (Fab, V domains shown)
VH: B1 VH with V20L, E52D, V58T, T66V, W105V
VL: B1 VL with L45P, L46W, I57V, F70Y, E91S
notes: Fab
B25: clone 22 Fab (12835 framework variant) (Fab, V domains shown)
VH: B1 VH with V20L, E52D, V58T, T66V, R72T, A97S, W105V
VL: B1 VL with A19V, L21M, L45P, L46W, I57V, E91S
notes: Fab
B26: clone 10-1 Fab (12835 framework variant) (Fab, V domains shown)
VH: B1 VH with V20L, E52D, V58T, T66V, A97S, W105V
VL: B1 VL with I57V, F70Y, E91S
notes: Fab
B27: clone 9-1 Fab (12835 framework variant) (Fab, V domains shown)
VH: B1 VH with V20L, E52D, V58T, T66V, A97S, W105V
VL: B1 VL with L45P, L46W, I57V, E91S
notes: Fab
B28: clone 27 Fab (12835 framework variant) (Fab, V domains shown)
VH: B1 VH with E52D, V58T, T66V, R72T, A97S, W105V
VL: B1 VL with L45P, I57V, F70Y, E91S
notes: Fab
B29: clone 21 Fab (12835 framework variant) (Fab, V domains shown)
VH: B1 VH with V20L, E52D, V58T, T66V, R72T, A97S, W105V
VL: B1 VL with L46W, F70Y, E91S
notes: Fab
B30: clone 19-5 Fab (12835 framework variant) (Fab, V domains shown)
VH: B1 VH with E52D, V58T, T66V, A97S, W105V
VL: B1 VL with I57V, F70Y, E91S
notes: Fab
B31: clone 20-7 Fab (12835 framework variant) (Fab, V domains shown)
VH: B1 VH with V20L, E52D, V58T, T66V, W105V
VL: B1 VL with I57V, F70Y, E91S
notes: Fab
B32: 21-3 (CDR-grafted HC) Fab (Fab, V domains shown)
VH: B1 VH with E52D, V58T, T66V, W105V
VL: B1 VL with I57V, F70Y, E91S
notes: Fab; also called clone 21-3
B33: clone 5-2 Fab (12835 framework variant) (Fab, V domains shown)
VH: B1 VH with V20L, E52D, V58T, T66V, A97S, W105V
VL: B1 VL with A19V, L21M, L45P, L46W, I57V, F70Y, E91S
notes: Fab

Target: TRAIL/TNFSF10 (R&D Systems, cat. no. 375-TL/CF) (UniProt P50591 114-281)
Test: ELISA, antigen coated at 1 µg/ml, Fab titrated
Description: (§1) Next, all the Fab variants were characterized for their selectivity for human TL1A relative to other TNFSF members TRAIL, LIGHT and Fas. […] The plate was washed 3 times with PBS-T and blocked with 100 μl of 1% BSA/PBS. The block was discarded and the Fab variants or control antibodies (Fas/TNFSF6, R&D Systems, cat. no. AF126; TRAIL/TNFSF10, R&D Systems, cat. no. AF375; LIGHT/TNFSF14, R&D Systems, cat. no. AF664) were titrated in 50 μl 1% BSA/PBS and incubated for 1 h at 25° C. The plate was washed 3 times with PBS-T and secondary HRP-conjugated antibody (diluted 5,000-fold in 1% BSA/PBS) was added for 1 h at 25° C. The plate was washed 3 times with PBS-T and developed.

TRAIL/TNFSF10 (R&D Systems, cat. no. 375-TL/CF), sequence (P50591 114-281 limits assumed): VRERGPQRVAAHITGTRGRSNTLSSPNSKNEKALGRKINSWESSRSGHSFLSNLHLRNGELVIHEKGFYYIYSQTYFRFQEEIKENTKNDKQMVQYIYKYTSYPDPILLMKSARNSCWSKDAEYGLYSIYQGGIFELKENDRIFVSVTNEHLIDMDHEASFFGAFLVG

Row | binding result | Binder
1 | no binding | B1
2 | no binding | B2
3 | no binding | B3
4 | no binding | B4
5 | no binding | B5
6 | no binding | B6
7 | no binding | B7
8 | no binding | B8
9 | no binding | B9
10 | no binding | B10

Target: T1, Fas/TNFSF6 (R&D Systems, cat. no. …)
Test: ELISA, antigen coated at 1 µg/ml, Fab titrated
Description: as §1

Row | binding result | Binder
11 | no binding | B1
12 | no binding | B2
13 | no binding | B3
14 | no binding | B4
15 | no binding | B5
16 | no binding | B6
17 | no binding | B7
18 | no binding | B8
19 | no binding | B9
20 | no binding | B10

Target: LIGHT/TNFSF14 (R&D Systems, cat. no. 664-LI/CF) (UniProt O43557 74-240)
Test: ELISA, antigen coated at 1 µg/ml, Fab titrated
Description: as §1

LIGHT/TNFSF14 (R&D Systems, cat. no. 664-LI/CF), sequence (O43557 74-240 limits assumed): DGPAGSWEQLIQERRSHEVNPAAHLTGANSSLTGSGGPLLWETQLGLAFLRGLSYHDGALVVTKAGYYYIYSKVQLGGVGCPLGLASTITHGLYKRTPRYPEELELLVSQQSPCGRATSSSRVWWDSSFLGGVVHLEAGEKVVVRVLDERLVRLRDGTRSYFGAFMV

Row | binding result | Binder
21 | no binding | B1
22 | no binding | B2
23 | no binding | B3
24 | no binding | B4
25 | no binding | B5
26 | no binding | B6
27 | no binding | B7
28 | no binding | B8
29 | no binding | B9
30 | no binding | B10

Target: T2, human TL1A (Fitzgerald, Prod. …)
Test: capture lift screen and Fab ELISA on coated TL1A

Row | binding result | Binder
31 | binds | B11
32 | binds | B12
33 | binds | B13
34 | binds | B14
35 | binds | B15
36 | binds | B16
37 | binds | B17
38 | binds | B18
39 | binds | B19
40 | binds | B20
41 | binds | B21
42 | binds | B22
43 | binds | B23
44 | binds | B24
45 | binds | B25
46 | binds | B26
47 | binds | B27
48 | binds | B28
49 | binds | B29
50 | binds | B30
51 | binds | B31
52 | binds | B32
53 | binds | B33
